Measured values: the supplement of paper PMC9170038

Tested on: MS2 coat protein
Test: apparent KD of MS2 coat protein; designed switch direction (-1 OFF switch, 1 ON switch): 1; higher = weaker reporter binding
Method in brief: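 Transcription of designed RNA switches on Illumina chips was done by stalled E. coli RNA polymerase. SNAP-549-labelled MS2 coat protein was then titrated in doubling steps from 0.7 or 1.5 nM to 3 µM, with steps of 0.8–1.5 h at the lowest and 10–20 min at the highest concentration. The per-design median over clusters of curve-fitted normalised fluorescence is reported as apparent KD.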

[1] = input ligand: microRNA oligo, concentration not stated
[2] = Eterna round: R95, input ligand: FMN 200 uM
[3] = Eterna round: R95, input ligand: microRNA oligo, concentration not stated
[4] = Eterna round: R95, input ligand: none

Sequence	apparent KD of MS2 coat protein (input ligand: FMN 200 uM) [nM]	apparent KD of MS2 coat protein [1] [nM]	apparent KD of MS2 coat protein (input ligand: none) [nM]	apparent KD of MS2 coat protein [2] [nM]	apparent KD of MS2 coat protein [3] [nM]	apparent KD of MS2 coat protein [4] [nM]
GGCGCCGGCGCAGGAUAUAAUAGCACCAACAAAUUAGAAGGGUGUCUGACUUAAACAUGAGGAUCACCCAUGUGCGCCACAAAA [Eternabot solution 2] (Eterna round: R96, puzzle: Same State NG 1)	198	137	311			
AAUUAAGAUCUAGGAUAUCACGUCGUUUAGACGUGAGAAGGAGAUCAUAACAUGAGGAUCACCCAUGUAUUACAUGAAUUAAUU [SSNG1/6-B3] (Eterna round: R96, puzzle: Same State NG 1)	24.2	22.9	28.5			
UAUUUAAUCAUAGGAUAUAGAGUGAAAUUUGGACUAGAAGGAUGUAACAUGAGGAUCACCCAUGUGGUAAGUGGGACACAGUGU [JR_SSNG1_Sub094] (Eterna round: R96, puzzle: Same State NG 1)	206	85.5	129			
AAGAAACAUGAGGAUCACCCAUGUCGAAAUAACACAGGAUAUCGCACGACUACGGUGCGGCGAGAAGGGUGAGGAA [Estere] (puzzle: Same State 1)				54.7	78.4	94.7
CCAACAUACAAUUUAAGAUCACAUGAGGAUCACCCAUGUAUGCAGGAUAUCAGCUCGAUUAGAGCUGAGAAGGGCAAUUUAAUU [SSNG3/1-A2] (Eterna round: R96, puzzle: Same State NG 3)	89.6	151	216			
GUAGCAUACCGAGGAUAUUCAUAUUAACAUGAGGAUCACCCAUGUUGGCCACAUUAGUGGCCUUGGGAGAAGGCGGAAUGCUAC [Xeonanis - 20 Mod38] (Eterna round: R96, puzzle: Same State NG 2)	19.6	107	140			
CGCGGUAAGGAAGGAUAUGGGACGAAAACGUACCUAGAAGGUCCACAUGAGGAUCACCCAUGUACCAAGAAAGCCGCGAAAUUA [Cereraus] (Eterna round: R96, puzzle: Same State NG 1)	90.7	276	410			
AUAAAACAUGAGGAUCACCCAUGUGGCGCUGACACAGGAUAUCAUGCGGAACUGGACGUAUGAGAAGGGUGAUGCG [Diateedza] (puzzle: Same State 1)				53	216	419
AUUAAACAUGAGGAUCACCCAUGUCUACAAAGUCGAGGAUAUGGGCAAAUAAAAUAAGAACCAGAAGGCGAAUAAU [salish99_ss1_r3_072] (puzzle: Same State 1)				60.3	613	533
UGCAUACAUGAGGAUCACCCAUGUCUACGAUGUCGAGGAUAUGGAUUGCCGUGAGGCGUGCCAGAAGGCGAAGUGG [Same State 1 - Mod of Vinnie Teenbexe v.2] (puzzle: Same State 1)				26.2	33.7	30.1
CAGUACAUUCAAGGAUAUUCUCCAUGGAAAGUAGAAGAAGGUGAAACAUGAGGAUCACCCAUGUAGAAAGGAACAUUCGUACUG [Eternabot solution 34] (Eterna round: R96, puzzle: Same State NG 1)	181	147	310			
